# Assay results from paper PMC4528106.
# Like-named read-outs stand apart in the source and are kept apart here.
# Assays:
# [1] = target: SARS-CoV 3CLpro with authentic N and C termini (SARS-CoV)
# [2] = target: MERS-CoV 3CLpro (nsp5 protease), without any N- or C-terminal extensions (MERS-CoV); test: AUC
# [3] = target: MERS-CoV 3CLpro (nsp5 protease), without any N- or C-terminal extensions (MERS-CoV)
# [4] = target: HKU4-CoV 3CLpro (bat coronavirus HKU4)
substance,measurement,setting,value
SARS-CoV 3CLpro with authentic N and C termini (enzyme),Kd,[1],0.06 µM
"MERS-CoV 3CLpro (nsp5 protease), without any N- or C-terminal extensions (enzyme)",Kd,[2],52 µM
same,koff,[2],0.0001 s⁻¹
same,stoichiometry N,[2],2
same,Kd,[3],7.8 µM
HKU4-CoV 3CLpro (enzyme),Kd,[4],0.1 µM
